The text below walks through data of article PMC3876986, “The Velvet Family of Fungal Regulators Contains a DNA-Binding Domain Structurally Similar to NF-κB”.

Series [1] deals with VosA_(1–190) dead, quadruple mutant of VosA with the mutations K37A, K39A, R41A, and K42A (A. nidulans). The series can be described thus: SEC-MALS; size exclusion chromatography and subsequent mass determination using MALS.
The target of series [2] is VosA_(1–190), minimal velvet domain of VosA encompassing residues 1–190 (A. nidulans). The series is described as follows: SEC; Superdex 200 (16/60) gel filtration column; elution volumes compared.
Series [3] shares this target. The series is described as follows: SEC-MALS; size exclusion chromatography and subsequent mass determination using MALS.
For a further series, the target named is T1, VeA1-224 (Aspergillus nidulans, UniProt C8VTV4 1-224).
T1 sequence: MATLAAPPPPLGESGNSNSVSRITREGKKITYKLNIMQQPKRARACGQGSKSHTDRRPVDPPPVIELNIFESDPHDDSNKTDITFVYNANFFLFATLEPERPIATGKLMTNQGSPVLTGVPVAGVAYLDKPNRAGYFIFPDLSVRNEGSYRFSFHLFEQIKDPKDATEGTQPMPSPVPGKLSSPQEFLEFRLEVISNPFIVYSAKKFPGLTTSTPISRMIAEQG
The series is described as follows: EMSA; binds as well as VosA1-190; EMSA: 10 mM HEPES/NaOH pH 7.4, 150 mM NaCl, ~53 pmol DNA in 10 ul, RT 15 min; DNA:protein molar ratios 1:0.3 to 1:9; 6% PAGE, 0.5% TBE, ethidium bromide. Particulars: protein: recombinant; tags: Strep-tag (C-terminal); blunt.

A further series has as its target T2, VosA full-length (Aspergillus nidulans, UniProt Q5BBX1 1-430).
T2 sequence: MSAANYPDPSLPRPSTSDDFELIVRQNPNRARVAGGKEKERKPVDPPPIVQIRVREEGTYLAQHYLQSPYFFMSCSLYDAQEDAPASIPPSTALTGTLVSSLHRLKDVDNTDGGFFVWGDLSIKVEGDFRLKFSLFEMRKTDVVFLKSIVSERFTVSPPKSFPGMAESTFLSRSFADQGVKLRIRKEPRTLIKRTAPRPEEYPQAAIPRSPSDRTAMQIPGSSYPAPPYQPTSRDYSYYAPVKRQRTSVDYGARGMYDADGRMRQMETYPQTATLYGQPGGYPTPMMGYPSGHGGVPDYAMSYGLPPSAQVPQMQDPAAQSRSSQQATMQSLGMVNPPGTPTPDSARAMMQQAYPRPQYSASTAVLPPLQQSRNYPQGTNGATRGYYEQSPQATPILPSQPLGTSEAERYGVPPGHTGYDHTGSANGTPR
The series can be described thus: EMSA; EMSA: 10 mM HEPES/NaOH pH 7.4, 150 mM NaCl, ~53 pmol DNA in 10 ul, RT 15 min; DNA:protein molar ratios 1:0.3 to 1:9; 6% PAGE, 0.5% TBE, ethidium bromide. The note with it: protein: recombinant; tags: GST (N-terminal, pGEX-5X-1); chain copies: 2; blunt.

In a further series the target is T3, VosA_N (Aspergillus nidulans, UniProt Q5BBX1 1-216).
T3 sequence: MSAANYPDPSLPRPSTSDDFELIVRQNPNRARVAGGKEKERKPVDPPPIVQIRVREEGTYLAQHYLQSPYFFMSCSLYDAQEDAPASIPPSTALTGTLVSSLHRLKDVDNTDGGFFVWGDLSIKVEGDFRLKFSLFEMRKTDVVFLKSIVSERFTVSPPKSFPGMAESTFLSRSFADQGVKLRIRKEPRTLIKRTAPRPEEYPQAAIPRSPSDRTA
The description is as above. The note with it: protein: recombinant; tags: GST (N-terminal, pGEX-4T-3); chain copies: 2; blunt.

The target of another series is VelB (Aspergillus nidulans, UniProt C8VTS4 1-369). The description is as above. Particulars: protein: recombinant; tags: His6 (C-terminal); blunt.
For the next series, the target named is T4, VosA1-190 (VosA_cryst) (Aspergillus nidulans, UniProt Q5BBX1 1-190).
T4 sequence: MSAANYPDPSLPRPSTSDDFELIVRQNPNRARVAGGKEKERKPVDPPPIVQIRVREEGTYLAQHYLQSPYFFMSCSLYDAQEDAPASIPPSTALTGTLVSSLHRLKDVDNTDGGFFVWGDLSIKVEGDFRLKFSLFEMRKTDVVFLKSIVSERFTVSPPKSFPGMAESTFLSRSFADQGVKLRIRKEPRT
The series can be described thus: EMSA; weaker than VosA_N; EMSA: 10 mM HEPES/NaOH pH 7.4, 150 mM NaCl, ~53 pmol DNA in 10 ul, RT 15 min; DNA:protein molar ratios 1:0.3 to 1:9; 6% PAGE, 0.5% TBE, ethidium bromide. The note with it: protein: recombinant; tags: Strep-tag (C-terminal); chain copies: 2; blunt.

Chain of VelB (C8VTS4 whole entry): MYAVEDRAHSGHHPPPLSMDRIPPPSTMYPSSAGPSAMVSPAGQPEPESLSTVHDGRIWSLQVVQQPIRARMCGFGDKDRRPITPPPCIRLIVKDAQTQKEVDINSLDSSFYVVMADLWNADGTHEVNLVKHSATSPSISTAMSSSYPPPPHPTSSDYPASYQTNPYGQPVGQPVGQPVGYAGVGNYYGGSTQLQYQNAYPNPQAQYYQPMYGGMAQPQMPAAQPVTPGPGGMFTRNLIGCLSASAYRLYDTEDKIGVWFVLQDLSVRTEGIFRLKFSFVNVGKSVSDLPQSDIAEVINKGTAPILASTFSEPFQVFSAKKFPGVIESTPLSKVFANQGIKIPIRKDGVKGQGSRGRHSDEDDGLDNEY

“VosA_(1–190) dead, quadruple mutant of VosA with the mutations K37A, K39A, R41A, and K42A (domain or fragment)”: the stoichiometry N in series [1] worked out at 2.
Take “VosA_(1–190), minimal velvet domain of VosA encompassing residues 1–190 (domain or fragment)”: the stoichiometry N in series [2] and in series [3] was 2 in each case.

B1: brlA 35 bp probe (OHS301/302) (dsDNA)
DNA 1: ATTCGGCGACTAGGATCTTACTGGCCGCGGCCGAG
DNA 2: CTCGGCCGCGGCCAGTAAGATCCTAGTCGCCGAAT
Regarding B1, the binding result in the series with VeA1-224 is on record as “binds”; with VosA full-length, “binds”; in the series with VosA_N, “binds”; with VelB, “no binding”; with VosA1-190 (VosA_cryst) it was “binds”.
